Assay results as given in patent publication US20070185028A1, “Compositions and methods for treatment of protein misfolding and protein aggregation diseases” (priority 2004, published 2007).

Columns and labels:
Type in all cases: biochemical
[1] = molecular target: T1, β2-microglobulin (β2m) (Homo sapiens, UniProt P61769); assay: β2-microglobulin fibrillation ThT assay; conditions: 1:1 ratio
T1 construct: purchased MP Biomedical
Description: Addition of 5.8 μM αB crystallin peptides, ST, DR, LT, HG, and ER decreased the ThT fluorescence of β2m by 40-64%. When the concentration of the αB crystallin peptides was increased to 29 μM and 145 μM, no further decrease in ThT fluorescence was observed. The negative control peptide AT1 had no effect on β2m fibrillation even at a concentration as high as 290 μM. All five αB crystallin peptides inhibited β2m fibrillation at sub-stoichometric and stoichometric concentrations (5.8 μM and 29 μM).
The Thioflavin T (ThT) fluorescence of β2m in the presence of varying concentrations of αB crystallin peptides and controls was measured. […] When the concentration of the peptides was increased to 29 μM (1:1::peptide:β2m), the αB crystallin peptides decreased the ThT fluorescence by 35-65%. When the concentration of the peptides was increased further to 145 μM ([…]), the αB crystallin peptides decreased the ThT fluorescence by 13-27%. […] The formation and inhibition of β2-microglobulin fibrils was verified microscopically.
β2-microglobulin fibrillation ThT assays were performed as described previously. Raman et al., Biochem J 392:573-81, 2005; Ivanova et al., Proc Natl Acad Sci USA 101:10584-9, 2004. Peptides were dissolved to 2 mM in 0.25% DMSO and diluted accordingly, while β2-microglobulin was dissolved in 25 mM sodium acetate, 25 mM sodium phosphate, pH 2.4. For the 5:1::peptide:β2-microglobulin assay, 10 μL of 430 μM peptide was mixed with 10 μL of 86 μM β2-microglobulin, 7 μl of 25 mM sodium acetate, 25 mM sodium phosphate, pH 2.4 and 3 μL of 1 mM ThT. For the 1:1::peptide:β2-microglobulin assay, 10 μL of 86 μM peptide was mixed with 10 μL of 86 μM (2-microglobulin, 7 μl of 25 mM sodium acetate, 25 mM sodium phosphate, pH 2.4 and 3 μL of 1 mM ThT. For the 1:5::peptide:β2-microglobulin assay, 10 μL of 17.2 μM peptide was mixed with 10 μL of 86 μM β2-microglobulin, 7 μl of 25 mM sodium acetate, 25 mM sodium phosphate, pH 2.4 and 3 μL of 1 mM ThT. ThT fluorescence was measured using a Perkin Elmer Victor^3 V plate reader. Assays were performed in 384-well fluorescence plates in duplicates or triplicates. Samples were incubated at 37° C. ThT fluorescence was measured continuously for 180 minutes. The effect of the peptides and APS was calculated as percentage fibril formation relative to β2-microglobulin alone (100%) at the end of 180 minutes.

[2] = system: βH crystallin; assay: Chaperone assay, thermal aggregation of βH crystallin at 50° C.; conditions: 50:1 molar ratio of peptide:βH crystallin, sixty minutes, 340 nm
Description: (§1) The chaperone activity of the peptides was measured as their ability to protect against the thermal aggregation of three chaperone target proteins βH crystallin, ADH and CS in chaperone assays performed at 50° C. (FIG. 19). A non-interactive αB crystallin sequence 111HGKHEERQDE120 was used as the negative control in the chaperone assays (FIG. 19). Based on near and far UVCD, the three target proteins unfolded in the order: CS>>>ADH>>βH crystallin when they were heated at 50° C. for sixty minutes (FIGS. 15 and 16). The thermal aggregation of βH crystallin, ADH and CS was measured as light scattering at λ=340 nm in the presence and absence of each peptide. The chaperone activity of each peptide was calculated as percent protection in which the aggregation of each target protein in the absence of any peptides was set at 0% protection (FIG. 19). The interactive peptides […] and 131LTITSSLSDGV141 were effective inhibitors of aggregation of all three chaperone target proteins.
(§2) A (top left): thermal aggregation of chaperone target proteins βH crystallin, ADH and CS in the absence of peptides was measured as light scattering at λ=340 nm. Each target protein was heated at 50° C. for sixty minutes in the absence or presence of one of the peptides. […] The chaperone activity of each peptide was calculated as percent protection in which the aggregation of each target protein in the absence of any peptides was set at 0% protection. The ability of the 73DRFSVNLDVKHFS85, 131LTITSSLSDGV141 and 111HGKHEERQDE120 to protect against the thermal aggregation of βH crystallin (B: top right), ADH (C: bottom left) and CS (D: bottom right) were tested in vitro (vertical bars). […] A 10:1 molar ratio of peptide:target protein was sufficient in conferring significant protection against the aggregation of CS by 73DRFSVNLDVKHFS85 and 131LTITSSLSDGV141.

[3] = molecular target: amyloid beta (1-42) (Homo sapiens, UniProt P05067); assay: Cu+++-induced aggregation of amyloid beta (1-42), light scattering 360 nm; conditions: 100 mM Cu+++
Description: In vitro assays were also performed to measure the ability of the human αB crystallin derived peptides identified in Example 1 to inhibit aggregation of Cu^+++-induced amyloid beta (1-42) aggregation. Aggregation assays were performed using routine procedures, in the presence or absence of a synthesized peptide identified in Example 1, in the presence of 100 mM Cu^+++. Aggregation was measured spectrophotometrically as light scattering at a wavelength of 360 nm. Aggregated amyloid-beta was assigned a value of 100% aggregation and used to normalize aggregation in the presence of synthesize peptides.
Aggregation was measured spectrophotometrically as light scattering at a wavelength of 360 nm. Aggregated amyloid-beta was assigned a value of 100% aggregation and used to normalize aggregation in the presence of synthesize peptides. Aggregation was plotted as a bar graph with the standard error for duplicate experiments. The 1 st vertical bar is the scattering measured for aggregated amyloid-beta (100% aggregation) in the presence of 100 mM Cu^+++. The 2nd-4th vertical bars is the scattering from amyloid-beta in the presence of wild type recombinant human αB crystallin. The 5th-13th vertical bars are the scattering of amyloid-beta in the presence of the synthetic peptides, DRFSVNLDVKHFS or LTITSSLSDGV or HGKHEERQDE at selected concentrations. A prefix of 10× represents a 10:1 molar concentration of amyloid-beta to either wild type αB crystallin or its peptides. A prefix of 1× represents a 1:1 molar concentration of amyloid-beta to either wt αB crystallin or its peptides. A prefix of 0.1× represents a 1:10 molar concentration of amyloid-beta to either wt αB crystallin or its peptides.

[4] = molecular target: ADH (Equus caballus, UniProt P00327); assay: Chaperone assay, thermal aggregation of ADH at 50° C.; conditions: 50:1 molar ratio of peptide:ADH, sixty minutes, 340 nm
Sequence of ADH (P00327 whole entry): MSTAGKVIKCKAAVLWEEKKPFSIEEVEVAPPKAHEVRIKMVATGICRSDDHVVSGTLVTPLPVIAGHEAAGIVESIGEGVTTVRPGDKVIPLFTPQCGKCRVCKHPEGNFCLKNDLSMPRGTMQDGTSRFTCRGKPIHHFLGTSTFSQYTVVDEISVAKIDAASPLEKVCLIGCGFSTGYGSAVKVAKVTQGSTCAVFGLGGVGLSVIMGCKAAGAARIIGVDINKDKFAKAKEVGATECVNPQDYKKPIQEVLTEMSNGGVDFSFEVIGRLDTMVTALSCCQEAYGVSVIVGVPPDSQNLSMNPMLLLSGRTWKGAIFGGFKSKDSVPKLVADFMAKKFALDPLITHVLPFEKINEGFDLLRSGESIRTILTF
Description: as §1, §2

T1 sequence (P61769 21-119): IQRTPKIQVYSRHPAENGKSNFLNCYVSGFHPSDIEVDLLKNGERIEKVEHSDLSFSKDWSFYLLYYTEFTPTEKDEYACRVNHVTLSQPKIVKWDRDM

EERQ
inhibition of β2-microglobulin fibril formation, HG derived peptides [1]: ~100%

LTITSSLSDGV
percent protection against thermal aggregation of βH crystallin [2]: approximately 30%
prevention of Cu+++-induced aggregation of amyloid-beta ([3]; 1:1 and 1:10 molar ratio of amyloid-beta to peptide): equally effective
prevention of Cu+++-induced aggregation of amyloid-beta ([3]; 10:1 molar ratio of amyloid-beta to peptide): less effective
percent protection against thermal aggregation of ADH [4]: approximately 30%

RQDE
inhibition of β2-microglobulin fibril formation, HG derived peptides [1]: ~100%
